Laboratory results from paper PMC7997285.

These substances were tested against human IRAK1 fused to the N-terminal Nanoluc fragment N67 (human) (UniProt P51617) (assay: split reporter (BiFC, NanoBiT)).

| Substance | fold Nanoluc activity over control reactions [fold] |
| --- | --- |
| CHIKV capsid protein fused to the C-terminal Nanoluc fragment C67 (from UniProt Q8JUX5) (natural protein) | > 10 |
| RRV capsid protein fused to the C-terminal Nanoluc fragment C67 (natural protein) | > 10 |
| SINV capsid protein fused to the C-terminal Nanoluc fragment C67 (from UniProt P03316) (natural protein) | 12 |
